For experiment [1], the target named is HLA-A*02 (human). Put plainly: UV-ligand exchange, anti-b2m ELISA; grade: exchange yield 50%-75%. A general note: An ELISA detects its analyte on a solid surface through an enzyme-linked reagent.
In experiment [2] the target is HLA-A*02 (human). Put plainly: UV-ligand exchange, anti-b2m ELISA; grade: exchange yield >=50%.

Take SLLEKELESV (also called DRG2-001): the peptide exchange yield in experiment [1] and in experiment [2] was 50 to 75% each time.

As for ALCEENMRGV (also called EEF2-001), the peptide exchange yield in experiment [1] and in experiment [2] was 50 to 75% throughout.

On to KLQAGTVFV (also called ALDH1L1-001), for which the peptide exchange yield in experiment [1] and in experiment [2] was 50 to 75% each time.

As for SLSQELVGV (also called ZNF318-001), the peptide exchange yield in experiment [1] and in experiment [2] was 50 to 75% throughout.

In the case of KMDPVAYRV (also called QAR-001), the peptide exchange yield in experiment [1] and in experiment [2] was 50 to 75% throughout.
